In publication PMC4227789 (Nucleic Acids Research, 2014):

Biological target: p53 DNA-binding domain (residues 92-312), recombinant untagged (Homo sapiens, UniProt P04637)
Assay: ITC

p53 DNA-binding domain (residues 92-312), recombinant untagged, sequence (P04637 92-312): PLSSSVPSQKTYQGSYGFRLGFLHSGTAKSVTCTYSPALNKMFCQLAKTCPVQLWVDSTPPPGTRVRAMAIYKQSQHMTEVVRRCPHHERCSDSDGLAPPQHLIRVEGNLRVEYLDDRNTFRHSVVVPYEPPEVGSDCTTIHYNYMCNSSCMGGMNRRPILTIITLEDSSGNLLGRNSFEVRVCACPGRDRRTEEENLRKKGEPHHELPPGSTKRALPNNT

B1: p53 DBD nanobody 139, recombinant V5-tagged (VHH)
VHH: QVQLQESGGGLVQAGGSLRLSCAASERTFSTYAMGWFRQAPGREREFLAQINWSGTTTYYAESVKDRTTISRDNAKNTVYLEMNNLNADDTGIYFCAAHPQRGWGSTLGWTYWGQGTQVTVSS
Kd: ~1 µM | stoichiometry N: 1
